The test addresses T1, human PPARγ LBD (residues 206-477) (human, UniProt P37231-2 206-477).
T1 sequence: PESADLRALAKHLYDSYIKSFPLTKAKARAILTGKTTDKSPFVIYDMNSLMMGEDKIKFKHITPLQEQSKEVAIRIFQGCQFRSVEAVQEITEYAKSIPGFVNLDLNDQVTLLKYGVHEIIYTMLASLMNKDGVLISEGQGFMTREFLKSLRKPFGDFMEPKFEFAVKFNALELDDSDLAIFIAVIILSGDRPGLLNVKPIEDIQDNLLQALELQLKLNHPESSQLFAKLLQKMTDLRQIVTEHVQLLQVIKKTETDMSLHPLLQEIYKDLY
Briefly: AlphaScreen or HTRF. A general note: In Alpha technology, singlet oxygen from a donor bead excites a nearby acceptor bead.

No end group written: not given here. *: point of attachment. Biotin = O=C1N[C@H]2[C@H](CS[C@H]2CCCCC(=O)*)N1

Consider Biotin-QKPTSGPQTPQAQQKSLLQQLLTE, for which the binding result was “binds”.

As for Biotin-QEPVSPKKKENALLRYLLDKDDTKD, the binding result is “binds”.

Take Biotin-SGNLVPDAASKHKQLSELLRGGSG [CBP-1 peptide (coactivator LXXLL motif of CBP), N-terminally biotinylated]: the binding result is reported as “binds”.

As to Biotin-SPSSHSSLTERHKILHRLLQEGSP, the binding result was “binds”.

The values above are taken from PMC3257359 (Cell research, 2011).
